{
  "source": "paper PMC4810121",
  "about": "“Proteomics Analysis Reveals Novel RASSF2 Interaction Partners” (Cancers, 2016)",
  "binders": {"B1": {"name": "GFP-C1QBP (natural protein, UniProt Q07021 74-282, looked up)", "chain": "LHTDGDKAFVDFLSDEIKEERKIQKHKTLPKMSGGWELELNGTEAKLVRKVAGEKITVTFNINNSIPPTFDGEEEPSQGQKVEEQEPELTSTPNFVVEVIKNDDGKKALVLDCHYPEDEVGQEDEAESDIFSIREVSFQSTGESEWKDTNYTLNTDSLDWALYDHLMDFLADRGVDNTFADELVELSTALEHQEYITFLEDLKSFVKSQ", "notes": "C1QBP; cDNA from GeneCopoeia, PCR amplified and cloned into pEGFP-C1; source: HEK-293T, transfected, in lysate"}},
  "target": "T1, RASSF2 (expression construct precipitated with anti-Flag) (UniProt P50749 1-326)",
  "T1 construct": "RASSF2; The methods describe no Flag-tagged construct; That RASSF2 carried the Flag tag is surmised, because C1QBP is the GFP-tagged partner and the blot used anti-Flag and anti-GFP; source: HEK-293T, transfected, in lysate",
  "T1 sequence (looked up)": "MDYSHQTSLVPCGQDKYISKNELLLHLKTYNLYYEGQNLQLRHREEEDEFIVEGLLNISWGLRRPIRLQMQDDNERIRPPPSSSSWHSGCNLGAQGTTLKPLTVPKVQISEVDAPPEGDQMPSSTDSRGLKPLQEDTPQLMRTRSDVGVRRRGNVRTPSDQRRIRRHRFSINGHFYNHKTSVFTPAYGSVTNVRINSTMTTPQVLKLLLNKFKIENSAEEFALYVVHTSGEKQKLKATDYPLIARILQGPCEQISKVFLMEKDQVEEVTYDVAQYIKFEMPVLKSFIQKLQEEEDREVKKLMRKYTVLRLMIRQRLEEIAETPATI",
  "experiment": "co-IP; HEK-293T co-transfected with RASSF2, C1QBP and with or without activated K-Ras for 24 hours; lysates immunoprecipitated with anti-Flag, blotted with anti-Flag and anti-GFP",
  "details": "partners not purified",
  "data": [
    {"binder": "B1", "values": [
      {"measurement": "fold change of the co-precipitate with activated Ras against without", "value": "~2", "unit": "fold"}
    ]}
  ]
}
